Test results published in patent US20170044230A1 (USTAV ORGANICKE CHEMIE A BIOCHEMIE AV CR, V.V.I., priority 2014, published 2017).
Non-standard residues stand in square brackets, D forms with d. No end group written: not given here. *: point of attachment. Palmitoyl = CCCCCCCCCCCCCCCC(=O)*; Myristoyl = CCCCCCCCCCCCCC(=O)*; Decanoyl = CCCCCCCCCC(=O)*; Octanoyl = CCCCCCCC(=O)*; Dap = NC[C@H](N)C(=O)O; Sar = CNCC(=O)O

B1: ghrelin analog no. 3, (Sar)S(Dpr-N-dec)(1-Nal)LSPEHQKAQQRKESKKPPAKLQPR (peptide)
peptide: XSXXLSPEHQKAQQRKESKKPPAKLQPR
modifications: sarcosine (Sar) at position 1; diaminopropionic acid N-decanoyl (Dpr-N-dec) at position 3; 1-naphtylalanine (1-Nal) at position 4
notes: Synthetic ghrelin analog
B2: ghrelin analog no. 13, (Sar)S(Dpr-N-oct)(PheCl2)LSPEHQKAQQRKESKKPPAKLQPR (peptide)
peptide: XSXXLSPEHQKAQQRKESKKPPAKLQPR
modifications: not fully specified; sarcosine (Sar) at position 1; diaminopropionic acid N-octanoyl (Dpr-N-oct) at position 3; dichlorophenylalanine (PheCl2) at position 4
notes: Synthetic ghrelin analog
B3: ghrelin analog no. 11, (Sar)S(Dpr-N-10-undecyn)FLSPEHQKAQQRKESKKPPAKLQPR (peptide)
peptide: XSXFLSPEHQKAQQRKESKKPPAKLQPR
modifications: sarcosine (Sar) at position 1; diaminopropionic acid N-10-undecynoyl (Dpr-N-10-undecyn) at position 3
notes: Synthetic ghrelin analog
B4: ghrelin analog no. 2, (Sar)S(Dpr-N-myr)FLSPEHQKAQQRKESKKPPAKLQPR (peptide)
peptide: XSXFLSPEHQKAQQRKESKKPPAKLQPR
modifications: sarcosine (Sar) at position 1; diaminopropionic acid N-myristoyl (Dpr-N-myr) at position 3
notes: Synthetic ghrelin analog; also called analog 2
B5: ghrelin analog no. 7, (Sar)S(Dpr-N-oct)FLSPEHQKAQQRKESKKPPAK(N-palm)LQPR (peptide)
peptide: XSXFLSPEHQKAQQRKESKKPPAKLQPR
modifications: sarcosine (Sar) at position 1; diaminopropionic acid N-octanoyl (Dpr-N-oct) at position 3; Lys 24 N-palmitoyl (K(N-palm))
notes: Synthetic ghrelin analog
B6: ghrelin analog no. 12, (Sar)S(Dpr-N-9-decen)FLSPEHQKAQQRKESKKPPAKLQPR (peptide)
peptide: XSXFLSPEHQKAQQRKESKKPPAKLQPR
modifications: sarcosine (Sar) at position 1; diaminopropionic acid N-9-decenoyl (Dpr-N-9-decen) at position 3
notes: Synthetic ghrelin analog
B7: ghrelin analog no. 8, (Sar)S(Dpr-N-oct)(Cha)LSPEHQKAQQRKESKKPPAK(N-palm)LQPR (peptide)
peptide: XSXXLSPEHQKAQQRKESKKPPAKLQPR
modifications: sarcosine (Sar) at position 1; diaminopropionic acid N-octanoyl (Dpr-N-oct) at position 3; cyclohexylalanine (Cha) at position 4; Lys 24 N-palmitoyl (K(N-palm))
notes: Synthetic ghrelin analog
B8: ghrelin analog no. 4, (Sar)S(Dpr-N-myr)(1-Nal)LSPEHQKAQQRKESKKPPAKLQPR (peptide)
peptide: XSXXLSPEHQKAQQRKESKKPPAKLQPR
modifications: sarcosine (Sar) at position 1; diaminopropionic acid N-myristoyl (Dpr-N-myr) at position 3; 1-naphtylalanine (1-Nal) at position 4
notes: Synthetic ghrelin analog
B9: ghrelin analog no. 10, (Sar)S(Dpr-N-oct)(tBu)LSPEHQKAQQRKESKKPPAKLQPR (peptide)
peptide: XSXXLSPEHQKAQQRKESKKPPAKLQPR
modifications: sarcosine (Sar) at position 1; diaminopropionic acid N-octanoyl (Dpr-N-oct) at position 3; tertbutylalanine (tBu) at position 4
notes: Synthetic ghrelin analog
B10: ghrelin analog no. 9, (Sar)S(Dpr-N-oct)(Nal)LSPEHQKAQQRKESKKPPAK(N-palm)LQPR (peptide)
peptide: XSXXLSPEHQKAQQRKESKKPPAKLQPR
modifications: not fully specified; sarcosine (Sar) at position 1; diaminopropionic acid N-octanoyl (Dpr-N-oct) at position 3; naphtylalanine (Nal) at position 4; Lys 24 N-palmitoyl (K(N-palm))
notes: Synthetic ghrelin analog
B11: ghrelin analog no. 5, (Sar)S(Dpr-N-dec)(Cha)LSPEHQKAQQRKESKKPPAKLQPR (peptide)
peptide: XSXXLSPEHQKAQQRKESKKPPAKLQPR
modifications: sarcosine (Sar) at position 1; diaminopropionic acid N-decanoyl (Dpr-N-dec) at position 3; cyclohexylalanine (Cha) at position 4
notes: Synthetic ghrelin analog
B12: ghrelin analog no. 14, (Sar)S(Dpr-N-myr)(PheCl2)LSPEHQKAQQRKESKKPPAKLQPR (peptide)
peptide: XSXXLSPEHQKAQQRKESKKPPAKLQPR
modifications: not fully specified; sarcosine (Sar) at position 1; diaminopropionic acid N-myristoyl (Dpr-N-myr) at position 3; dichlorophenylalanine (PheCl2) at position 4
notes: Synthetic ghrelin analog; also called analog 14
B13: ghrelin analog no. 6, (Sar)S(Dpr-N-myr)(Cha)LSPEHQKAQQRKESKKPPAKLQPR (peptide)
peptide: XSXXLSPEHQKAQQRKESKKPPAKLQPR
modifications: sarcosine (Sar) at position 1; diaminopropionic acid N-myristoyl (Dpr-N-myr) at position 3; cyclohexylalanine (Cha) at position 4
notes: Synthetic ghrelin analog
B14: ghrelin analog no. 1, (Sar)S(Dpr-N-dec)FLSPEHQKAQQRKESKKPPAKLQPR (peptide)
peptide: XSXFLSPEHQKAQQRKESKKPPAKLQPR
modifications: sarcosine (Sar) at position 1; diaminopropionic acid N-decanoyl (Dpr-N-dec) at position 3
notes: Synthetic ghrelin analog

What was measured:
human GHS-R1a receptor = target: T1, human GHS-R1a receptor (Homo sapiens, UniProt Q92847); assay: Competitive binding studies (displacement of 125I-ghrelin); details: relative to ghrelin = 100
T1 construct: purchased Multispan, Hayward, Calif., USA; host or cells: HEK293T cells, isolated plasma membranes
T1 sequence (Q92847 whole entry): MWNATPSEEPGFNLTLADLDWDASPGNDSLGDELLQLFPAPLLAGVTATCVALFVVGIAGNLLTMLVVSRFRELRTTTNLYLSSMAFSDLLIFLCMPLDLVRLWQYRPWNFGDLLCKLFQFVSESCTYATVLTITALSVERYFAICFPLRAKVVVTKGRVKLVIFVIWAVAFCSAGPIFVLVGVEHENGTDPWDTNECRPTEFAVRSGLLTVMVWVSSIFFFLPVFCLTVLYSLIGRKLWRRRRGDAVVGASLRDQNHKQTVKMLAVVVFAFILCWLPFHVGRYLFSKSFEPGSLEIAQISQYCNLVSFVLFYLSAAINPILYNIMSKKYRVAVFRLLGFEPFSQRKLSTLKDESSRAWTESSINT
Procedure: Isolated plasma membranes from the HEK293T cells with transfected human GHS-R1a receptor (Multispan, Hayward, Calif., USA) were used. […] Experiments were carried out in duplicates at least three times. Competitive binding curves were plotted using GraphPad Prism Software (San Diego, Calif., USA) while comparing the best fit for single binding sites models.

fed C57BL/6 male mice = assay: Effect of SC administered ghrelin analogs on food intake; assay type: in vivo; details: for maximal effect at 5 mg/kg on food intake: SC 5 mg/kg, evaluated 480 min after administration
Procedure: All of the experiments followed the ethical guidelines for animal experiments and Czech Republic law 246/1992 and were approved by the committee for experiments with laboratory animals of the Academy of Sciences of the Czech Republic. Male C57BL/6 mice (Charles River, Germany) were housed at a temperature 22±2° C. under a daily cycle of 12/12 h light/dark (light from 6:00) with free access to water and a standard chow diet St-1 which contained […] of calories from protein, fat and carbohydrate, respectively, and its energy content was 3.4 kcal/g (Mlýn Kocanda, Praha, Czech Republic). Mice were placed into separate cages for one week before experiment, they had free access to water and food pellets. Closely before the experiment, the food pellets were removed from the cages. […] 15 min after the injection, mice were given preweighed food pellets. Food intake was monitored for 8-10 hours at 30-min intervals. Mice had free access to water during the experiment. Experiments were performed at least twice for each tested compound, each experimental group had at least 5 mice.
Data from food intake experiments were analyzed by one-way ANOVA followed by Dunnett's post-hoc test using GraphPad Prism Software (San Diego, Calif., USA), P<0.05 was considered statistically significant. ED50 values were calculated using GraphPad Prism Software as the dose of the tested compound required to elicit half-maximal effect at 250 min after administration of the corresponding compound.
Food intake was monitored for […] after administration of the compounds. ED50 values were determined 250 min after administration. Maximal effect on food intake was evaluated […] after administration of the compounds at a dose of 5 mg/kg of body weight. NT—not tested.

[1] = target: T2, human GHS-R1a receptor (growth hormone secretagogue receptor 1a) (human, UniProt Q92847 1-366); assay: competitive displacement of 125I-ghrelin, membranes of HEK293T cells with transfected human GHS-R1a
T2 construct: whole, on cells; Functional assays: HEK-293T cells transiently transfected with human GHS-R1a; also called ghrelin receptor
T2 sequence (Q92847 whole entry): as above
Procedure: Competitive binding studies were performed according to the principles of Motulsky and Neubig (Motulsky & Neubig, 2002). Isolated plasma membranes from the HEK293T cells with transfected human GHS-R1a receptor (Multispan, Hayward, Calif., USA) were used. […] The binding reaction was stopped by the addition of ice-cold washing buffer (20 mM Tris pH 7.4, 10 mM MgCl₂, 2.5 mM EDTA, 0.015% Triton X-100) followed by rapid filtration over GF/C filters (Whatman, Clifton, N.J., USA) presoaked with 0.5% PEI in binding buffer using a Brandel cell harvester (Brandel Inc., Gaithersburg, Md., USA). Bound radioactivity was determined by gamma counting (Wizard 1470 Automatic Gamma Counter; PerkinElmer Life and Analytical Sciences, Waltham, Mass.).

[2] = target: T2, human GHS-R1a receptor (growth hormone …); assay: cell-based or functional assay

Molecule	% of ghrelin binding (human GHS-R1a receptor)	maximal effect at 5 mg/kg on food intake (fed C57BL/6 male mice)	ED50 (250 min after injection), effect on food intake (fed C57BL/6 male mice; SC, fed mice, 250 min after injection)	% of ghrelin binding [1]	Ki [1]	Ca^2+ - EC50 [nM] (intracellular calcium mobilization, Fluo-4AM) [2]	IP1 - EC50 [nM] (inositol phosphate accumulation, IP-One HTRF) [2]
CCCCCCCC(=O)NC[C@H](NC(=O)[C@H](CO)NC(=O)CNC)C(=O)N[C@@H](Cc1ccc(Cl)c(Cl)c1)C(=O)N[C@@H](CC(C)C)C(=O)N[C@@H](CO)C(=O)N1CCC[C@H]1C(=O)N[C@@H](CCC(=O)O)C(=O)N[C@@H](Cc1c[nH]cn1)C(=O)N[C@@H](CCC(N)=O)C(=O)N[C@@H](CCCCN)C(=O)N[C@@H](C)C(=O)N[C@@H](CCC(N)=O)C(=O)N[C@@H](CCC(N)=O)C(=O)N[C@@H](CCCNC(=N)N)C(=O)N[C@@H](CCCCN)C(=O)N[C@@H](CCC(=O)O)C(=O)N[C@@H](CO)C(=O)N[C@@H](CCCCN)C(=O)N[C@@H](CCCCN)C(=O)N1CCC[C@H]1C(=O)N1CCC[C@H]1C(=O)N[C@@H](C)C(=O)N[C@@H](CCCCN)C(=O)N[C@@H](CC(C)C)C(=O)N[C@@H](CCC(N)=O)C(=O)N1CCC[C@H]1C(=O)N[C@@H](CCCNC(=N)N)C(=O)O [Analog 13]	47%	92.9 % of Dpr^3ghr	–	–	–	–	–
CCCCCCCC(=O)NC[C@H](NC(=O)[C@H](CO)NC(=O)CN)C(=O)N[C@@H](Cc1ccccc1)C(=O)N[C@@H](CC(C)C)C(=O)N[C@@H](CO)C(=O)N1CCC[C@H]1C(=O)N[C@@H](CCC(=O)O)C(=O)N[C@@H](Cc1c[nH]cn1)C(=O)N[C@@H](CCC(N)=O)C(=O)N[C@@H](CCCCN)C(=O)N[C@@H](C)C(=O)N[C@@H](CCC(N)=O)C(=O)N[C@@H](CCC(N)=O)C(=O)N[C@@H](CCCNC(=N)N)C(=O)N[C@@H](CCCCN)C(=O)N[C@@H](CCC(=O)O)C(=O)N[C@@H](CO)C(=O)N[C@@H](CCCCN)C(=O)N[C@@H](CCCCN)C(=O)N1CCC[C@H]1C(=O)N1CCC[C@H]1C(=O)N[C@@H](C)C(=O)N[C@@H](CCCCN)C(=O)N[C@@H](CC(C)C)C(=O)N[C@@H](CCC(N)=O)C(=O)N1CCC[C@H]1C(=O)N[C@@H](CCCNC(=N)N)C(=O)O [Dpr^3ghrelin, reference compound]	169%	100 % of Dpr^3ghr	0.82 mg/kg	–	–	–	–
B1	–	–	–	176%	0.65 nM	18.6 nM	2.08 nM
B2	–	–	–	47%	2.45 nM	–	–
[Sar]S[Dap](Decanoyl)FLSPEHQKAQQRKES [ghrelin analog no. 17, (Sar)S(Dpr-N-dec)FLSPEHQKAQQRKES]	–	–	–	30%	3.71 nM	–	–
B3	–	–	–	139%	0.83 nM	–	–
B4	–	–	–	54%	2.1 nM	36.6 nM	7.1 nM
B5	–	–	–	19%	6.09 nM	–	–
B6	–	–	–	76%	1.51 nM	–	–
[Sar]S[Dap](Myristoyl)FLSPEHQKAQQRKES [ghrelin analog no. 18, (Sar)S(Dpr-N-myr)FLSPEHQKAQQRKES]	–	–	–	34%	3.38 nM	–	–
B7	–	–	–	6%	20.8 nM	–	–
B8	–	–	–	57%	2.01 nM	10.9 nM	9.75 nM
B9	–	–	–	24%	4.71 nM	–	–
GSXFLSPEHQKAQQRKESKKPPAKLQPR (diaminopropionic acid (Dpr) bearing octanoyl at position 3, Synthetic ghrelin analog) [Dpr^3ghrelin]	–	–	–	169%	0.68 nM	–	16.3 nM
B10	–	–	–	5%	23.3 nM	–	–
B11	–	–	–	110%	1.04 nM	10.6 nM	3.28 nM
GSS(Octanoyl)FLSPEHQKAQQRKESKKPPAKLQPR [Ghrelin]	–	–	–	100%	–	–	–
[Sar]S[Dap](Myristoyl)FLSPEHQKAQQRK(Palmitoyl)ES [ghrelin analog no. 16, (Sar)S(Dpr-N-myr)FLSPEHQKAQQRK(N-palm)ES]	–	–	–	2%	51 nM	–	–
B12	–	–	–	7%	16.8 nM	–	–
B13	–	–	–	18%	6.41 nM	11.4 nM	3.08 nM
B14	–	–	–	183%	0.63 nM	9.66 nM	12.6 nM
[Sar]S[Dap](Decanoyl)FLSPEHQKAQQRK(Palmitoyl)ES [ghrelin analog no. 15, (Sar)S(Dpr-N-dec)FLSPEHQKAQQRK(N-palm)ES]	–	–	–	19%	5.99 nM	–	–
